Test results: article PMC4357533 (Journal of molecular biology, 2015)
Numbering of substitutions follows the chain as printed. In names and notes the source's numbering stands. Values belong to the binder of their own block, whether it stands above or below them.

Target: Ssa1 Hsp70 (S. cerevisiae, UniProt P10591 1-642)
Assay: ELISA

Ssa1 Hsp70, sequence (P10591 whole entry): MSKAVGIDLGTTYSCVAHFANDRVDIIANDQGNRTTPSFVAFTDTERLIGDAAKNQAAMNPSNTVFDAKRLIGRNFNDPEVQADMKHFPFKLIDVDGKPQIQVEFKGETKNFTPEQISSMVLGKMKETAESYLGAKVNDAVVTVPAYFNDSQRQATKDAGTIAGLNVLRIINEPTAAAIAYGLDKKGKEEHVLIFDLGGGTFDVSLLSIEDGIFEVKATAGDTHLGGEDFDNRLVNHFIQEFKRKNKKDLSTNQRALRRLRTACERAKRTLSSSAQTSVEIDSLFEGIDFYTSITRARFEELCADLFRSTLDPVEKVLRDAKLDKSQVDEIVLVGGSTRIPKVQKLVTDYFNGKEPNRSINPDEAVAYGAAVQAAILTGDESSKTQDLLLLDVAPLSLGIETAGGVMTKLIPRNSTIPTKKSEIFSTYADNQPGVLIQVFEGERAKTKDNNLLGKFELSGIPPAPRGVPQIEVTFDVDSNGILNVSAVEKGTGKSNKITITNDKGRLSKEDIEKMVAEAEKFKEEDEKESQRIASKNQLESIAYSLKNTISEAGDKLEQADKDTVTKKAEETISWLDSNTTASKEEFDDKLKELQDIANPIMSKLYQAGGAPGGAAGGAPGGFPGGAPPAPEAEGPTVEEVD

binding result: binds
B1: Sis1 single alteration variant K199N (natural protein, S. cerevisiae, UniProt P25294 1-352, looked up)
chain: MVKETKLYDLLGVSPSANEQELKKGYRKAALKYHPDKPTGDTEKFKEISEAFEILNDPQKREIYDQYGLEAARSGGPSFGPGGPGGAGGAGGFPGGAGGFSGGHAFSNEDAFNIFSQFFGGSSPFGGADDSGFSFSSYPSGGGAGMGGMPGGMGGMHGGMGGMPGGFRSASSSPTYPEEETVQVNLPVSLEDLFVGKKNSFKIGRKGPHGASEKTQIDIQLKPGWKAGTKITYKNQGDYNPQTGRRKTLQFVIQEKSHPNFKRDGDDLIYTLPLSFKESLLGFSKTIQTIDGRTLPLSRVQPVQPSQTSTYPGQGMPTPKNPSQRGNLIVKYKVDYPISLNDAQKRAIDENF

binding result: binds
B2: Sis1 single alteration variant K202N (natural protein, S. cerevisiae, UniProt P25294 1-352, looked up)
chain: B1 chain with N199K, K202N

binding result: binds
B3: Sis1 single alteration variant K214N (natural protein, S. cerevisiae, UniProt P25294 1-352, looked up)
chain: B1 chain with N199K, K214N
